Consider 1 substance from publication PMC7549315.

One test has as its target SAF-A^CtermΔ–GFP. Kind of test: co-IP.
Another test has as its target SAF-A^RGG1-7Δ–GFP (UniProt Q00839). As to the kind of experiment: co-IP.

SAF-A^RGG1-7Δ–GFP, sequence (Q00839 whole entry, stated change not applied): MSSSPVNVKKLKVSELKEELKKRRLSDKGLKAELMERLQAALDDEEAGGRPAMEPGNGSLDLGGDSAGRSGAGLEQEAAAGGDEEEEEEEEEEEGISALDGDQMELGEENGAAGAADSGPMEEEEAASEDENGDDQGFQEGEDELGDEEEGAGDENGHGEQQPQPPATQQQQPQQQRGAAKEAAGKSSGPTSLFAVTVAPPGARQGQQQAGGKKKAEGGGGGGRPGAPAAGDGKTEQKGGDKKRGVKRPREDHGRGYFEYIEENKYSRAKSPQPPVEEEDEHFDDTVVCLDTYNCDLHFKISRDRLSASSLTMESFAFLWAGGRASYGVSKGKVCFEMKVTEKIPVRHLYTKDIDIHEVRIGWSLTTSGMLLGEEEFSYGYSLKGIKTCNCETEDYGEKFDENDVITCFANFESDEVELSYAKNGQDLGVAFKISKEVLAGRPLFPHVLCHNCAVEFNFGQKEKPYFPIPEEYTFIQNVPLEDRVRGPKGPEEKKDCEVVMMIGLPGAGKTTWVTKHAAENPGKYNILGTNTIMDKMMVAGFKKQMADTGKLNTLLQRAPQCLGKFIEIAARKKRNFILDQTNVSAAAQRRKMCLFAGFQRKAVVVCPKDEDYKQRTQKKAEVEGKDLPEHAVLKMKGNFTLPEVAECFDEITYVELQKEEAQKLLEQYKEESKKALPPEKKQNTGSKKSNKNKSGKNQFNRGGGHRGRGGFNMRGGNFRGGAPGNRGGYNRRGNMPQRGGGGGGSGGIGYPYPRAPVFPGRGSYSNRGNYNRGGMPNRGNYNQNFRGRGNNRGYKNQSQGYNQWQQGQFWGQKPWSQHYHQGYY
SAF-A^CtermΔ–GFP, sequence (Q00839 2-825, stated change not applied): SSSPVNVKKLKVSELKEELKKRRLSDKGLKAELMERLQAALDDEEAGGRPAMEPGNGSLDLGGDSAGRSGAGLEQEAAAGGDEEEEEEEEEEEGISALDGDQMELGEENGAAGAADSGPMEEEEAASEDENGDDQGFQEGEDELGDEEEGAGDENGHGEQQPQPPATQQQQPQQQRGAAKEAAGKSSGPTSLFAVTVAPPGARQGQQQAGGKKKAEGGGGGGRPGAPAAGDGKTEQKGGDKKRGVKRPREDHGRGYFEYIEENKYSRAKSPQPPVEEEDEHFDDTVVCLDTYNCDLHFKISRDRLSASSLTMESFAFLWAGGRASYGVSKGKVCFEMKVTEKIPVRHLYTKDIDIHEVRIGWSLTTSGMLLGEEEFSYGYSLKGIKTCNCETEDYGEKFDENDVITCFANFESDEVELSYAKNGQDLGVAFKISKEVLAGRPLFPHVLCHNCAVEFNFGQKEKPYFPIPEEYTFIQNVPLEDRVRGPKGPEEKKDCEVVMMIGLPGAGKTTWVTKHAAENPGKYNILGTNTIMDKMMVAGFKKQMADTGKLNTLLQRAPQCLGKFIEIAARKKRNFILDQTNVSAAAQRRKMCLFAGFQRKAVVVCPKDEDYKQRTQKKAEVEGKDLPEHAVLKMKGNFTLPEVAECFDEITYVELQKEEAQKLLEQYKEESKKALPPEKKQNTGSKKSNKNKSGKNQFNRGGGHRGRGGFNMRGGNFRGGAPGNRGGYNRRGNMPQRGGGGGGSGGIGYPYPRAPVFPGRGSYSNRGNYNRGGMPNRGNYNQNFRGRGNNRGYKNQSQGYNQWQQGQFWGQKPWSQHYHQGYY

As to “histone H3 (from UniProt P68431 1-136) (natural protein)”, the fold reduction in histone H3 interaction relative to SAF-A^wt–GFP with SAF-A^CtermΔ–GFP and with SAF-A^RGG1-7Δ–GFP was more than 7 fold in each case.
